# Assay results: a protein production outcome set (Wang et al. 2014)
# Assay: label from the status in PepcDB records
row,Sequence,protein production
1,MKPSLRIYRYPPPPSQRTPCALTIGNFDGVHLGHQAILARVRQEARARGLVPAVMTFEPHPREYFATLNRRPELAPTRISGLRDKLQALAAAGIEQVAVERFDARLAEMSANAFIEDLLVAGLQTRWLLVGEDFRYGHKRSGDIDLLREAGLAHGFEVCTLADITDRQGHRISSSEVRTALAVGDLDRAAQLLGQPFHISGHVIHGRKLGRELGFPTMNLRVAPRCATRSGIYVVRVLGLQDRPLPAVASLGVRPTVEDRGRVLLEAHLLDESLDAYGKLVRVEFLHKLRDEEKFADLPSLTAAIAQDAQNARAYFAVHGL,failed
2,MLSANQIKFLRSLRERKYRLREQAFAVEGPKLVGEMLPFYRCRMLVGTAAMLRAVSTPHDAEVVELPESFDFKRISTQTTPQPLMAVFDLPAEPEPVVEGLTLLLDGVQDPGNVGTILRTADWFGIRHVWLGTGSADVFSPKVVQASMGALARVQPTPLKNTVDTLAYFRRQGIPVYGAFLDGQSLYEAPLPNFTEPAILVLGSEGRGISPEVAAEITDRLTIPASGLSVKGHTESLNVAIATAILCSEWRRRS,not failed
3,MRLRLLSLPFILSLCAPLLPLNTLAAERIVTIGGDVTEIAYALGAGDEIVARDSTSQQPQAAQKLPDVGYMRTLNAEGILAMKPTMLLVSELAQPSLVLTQIASSGVNVVTVPGQTTPESVAMKINAVATALHQTEKGQKLIEDYQQRLAAVNKTPLPVKVLFVMSHGGLTPMAAGQNTAADAMIRAAGGSNAMQGFSRYRPLSQEGVIASAPDLLLITTDGVKALGSSENIWKLPGMALTPAGKHKRLLVVDDMALLGFGLETPQVLAQLREKMEQMQ,failed
4,MTSAAMATAYFDKGNQCAARCDWLGAIEAFDHCLSLNPRDWQALANRGNAKVQREDLSGALEDYLAAAALNPSSCNIKSNLAVLLKELGELDLAAALLEEVLAAEPAHVDAWSNLGIVRQHQRRYQDAIACQQNALAIAGPSVARYSNLGNAYSCALMLDAAIEVQRKGLELAPDDANLQFNQSITLLTAGRYAEAWPLYEARWRSVLRPRLTQKRWQGEALGERTLLLWSEQGLGDSLQMVRLLSCLRRAHPQARLLLACPVSFHRLFAQFDGVSLLPADALPEHDCQLPLMSLPWLLGITLDNLPTEPYLRVPGGMVPPLPAASRRRVGVVWESGLWGVGVADLGRQHKSIPAGLFAEICRVPGIEFIALQPGGVPAELSDWVRACPISDFADTAALAAQMDLVICVDTAILHLAGAMGRPVWALLRAESAPFFLADAETAPWYPSVKLWRQPAPGAWEPMLKQIAEALAGRQTF,failed
5,MRTPLIDRRDFLRAAGIGFAAVMAPSAWAKTLAANAVFATAFVKRDGSFGAAILSEAGKVLHAIDLPDRGHDVTFDPISKRSVVFARQPGTFAVVFDHSGRDAPQTVASISGRHFFGHGVFSPDGALLYATENDFDNAAGVIGIYDARAKFSRVGEFPTYGMGPHELLLLGDGRTMAVANGGIETHPDYGRAELNIATMKPSYVLIDRVTGDLIEKHELPASLHQLSIRHMDTDPSGTVWFGCQYRGPGTDRPLLVGRAVRGKELQLLDMPQDVLSGFRNYIGSVAANLSAGSVAVSSPEGNSLVVIDAASGRVVSSSALVEVCGLAPDGSGFIATTGAGEIIEGSGATRSEPDYVWDNHMLRIERA,failed
6,MNIQIKKRFLANLLLFSLFCLKAETLSEDHQILLSSDAFHRGDFAAAQKGYMNLYKQTNKVVYAKEAAISAASLGDIKTAMHLAMLYQKITNNRNDVSINKILVDGYAQMGQIDKAIELLHKIRKEEKTIATDNVLGTLYLTQKRLDKAFPLLNKFYNQVHDEDSLEKLITIYFLQNRKKEGLDLLQSHIDRYGCSEQLCQKALNTFTQFNELDLAKTTFARLYEKNPIVQNAQFYIGVLILLKEFDKAQKIAELFPFDRRLLLDLYTAQKKFDQASKQASLIYQEKKDPKFLGLEAIYHYESLSANKKKLTKEEMLPIIQKLEQATKERQAWLAKTKDKEDAQDAFFYNFLGYSLIDYDMDIKRGMDFVRKALALDSGSVLYLDSLAWGYYKLGNCLEAKKIFSSIAKESIQAEPELKEHNKIIQECKK,failed
7,MPAVARIDPKTIFTPDEWARLTHRSSARGLWLVAHAWGCIALAVALVTIWPNPLTWLIAVMIVGTRQLGLAILMHEAAHGGLHCNPKLNEWIGQWLCAVPVGADLPAYRRYHLQHHKYTQQPEDPDLVLSAPFPISKDSFVRKAIRDLTGQTFVKQRLPALKALFAPADSGAPKHDSFVASGKARTQRFLAANAVLLALFWLAGAGVWFVGVWLVAMATWLPLVTRVRNIAEHACTSTGADPFSQARTTLANPIERALIAPYWVNYHAEHHLFMYLPCYNLPEAHRLLRDKGLIDRVTVAPSYRDVLKLATTRPRAVAAE,failed
8,SSPVPFGPEGRLEDKLHKPKATQTEVKPSVRFNLRTSKDPEHEGCYLSVGHSQPLEDCSFNMTAKTFFIIHGWTMSGIFENWLHKLVSALHTREKDANVVVVDWLPLAHQLYTDAVNNTRVVGHSIARMLDWLQEKDDFSLGNVHLIGYSLGAHVAGYAGNFVKGTVGRITGLDPAGPMFEGADIHKRLSPDDADFVDVLHTYTRSFGLSIGIQMPVGHIDIYPNGGDFQPGCGLNDVLGSIAYGTITEVVKCEHERAVHLFVDSLVNQDKPSFAFQCTDSNRFKKGICLSCRKNRCNSIGYNAKKMRNKRNSKMYLKTRAGMPFRVYHYQMKIHVFSYKNMGEIEPTFYVTLYGTNADSQTLPLEIVERIEQNATNTFLVYTEEDLGDLLKIQLTWEGASQSWYNLWKEFRSYLSQPRNPGRELNIRRIRVKSGETQRKLTFCTEDPENTSISPGQELWFRKCRDGWRMKNETSPTVELP,not failed
9,MPINTLESSPWRGSRHDFCRERLEPLLDQAGIRINGDRPWDIRVHDPAFFRRMFADASLGLGESYVDGWWDCDRIDEFICRIIRAGLADRFRSWRDAVAALQARLFNLQHAARAFHVGQRHYDIGNDLYGCMLDRRMIYSCGYWKDATTLDEAQEAKLDLVFRKIGLEPGMRVLDIGCGWGGAARFAAEKYGVEVYGVTVSAEQARYAREICQGLPVTIELKDYRDIEGHFDRAYSLGMFEHVGCKNYGTYMKLVADRLPDDGLFLLHTIGINTSDNHGNPWVDRYIFPNSMLPSIAQIGTATENRLVMEDWQNFGPDYDRTLLTWYDRFEWHWPSLRPRYGDRFYRMWRFYLLSFAGAFRARYIQLWQIVLSPKGLTRRYDAPR,failed
10,MEDETLGFFKKTSSSHARLNVPALVQVAALAIIMIRGLDVLMIFNTLGVRGIGEFIHRSVQTWSLTLVFLSSLVLVFIEIWCAFSLVKGRRWARWLYLLTQITAASYLWAASLGYGYPELFSIPGESKREIFHSLMLQKLPDMLILMLLFVPSTSRRFFQLQ,failed
11,MTKSTPHPSSIIKAEQQSLLYLHIAVFLFGGTALFSKLIGLPALDITVYRTGIAALALFILLTLQKKQISLSSMKDYGIAILLGCVVGLHWVTYFTGMQMAGVTVGMIAFFTYPVITVFIEPFFNRTVPKMKDMITAFVVIIGIVLLIPEISFGNQITLGIVTGIISAVFFALRNILHKNYFSHYSGPHTMLYQTLVACLMLCLFVEVPPMQVTESDWLLLLLVGVVFTATPHALFASSLRSLSATTAGLISCLQPLYGSILAIILLHERPDILTIIGGLLVVSAAIFETWSVSRGRR,failed
12,GAFDAAQLDVAQAYARHLAVSLQQSLLRQRVARLGRVYEVLSRINALVARCHEREELFDGICRVTVEVGTYRMAWVGVIDPETLNGTVVAFRGEDSDYLRQIRLSAKEDSPYRDRPACKAVRQKEIVVCNDVQEDASLKGLAPHLISYGVRSVACLPVMLDGRAFAVLALFAGDVGAFDRQEMGLLRELASDIGFALDHIQKEERLDYLAYYDS,failed
13,MQSNLLAVLFALASALTIAWGTVVRHRIALRTPKDGSLRSSPLLNALMTPMWWAGMSTAMLAYFLQTVALGFGTLLVVQPVLVLSLMFTLPLSARFNGYRLRRTEIFWATLLTVAVGIMIVLGRPLPGNPHPPLDRWIPVLLVGVAVMGGMWLLAEYVLKKDKALILGLVTGALFGYVAVMSKAAVDLFVHQGITGLILNWEGYGLILTALLGTIVQQYSFNAGELQKSLPAMTIAEPIVAFSLGYLVLGEKFQVVDWEWIAMGIALLVMIVSTIALSRTSTMPAGSKR,failed
14,RLSAREAIALLSDDFDRLPVAEGAYAPDGPLSWQGYDASRARATERTGEDESVVCGRARIDGTPAVLIAFEFGFLGGSLGERTGDRLEAAYTYARAHRLPVVSLVATGGSRMQEGMLALTQLQRVARQSALTRAAGLPQLAVLRDPTTGGGWATLGAGADVVLALPGVQVGFAGSRVRPPDADPAAYTAQAQLAAGSIDAVVRPQELRETVGLWLALLTAPSTEP,failed
15,SQLINLPMDQILYLSTSDIKHHVHLQTIHTLMDIRANLADFKKIHKKLYPCHRSYIVNTDMIISVNKTNYEATLINGQVLPVSRMKIGKIAQIVEERGR,not failed
16,MTTGPALSSSEEGLMSEMPPAWCHTARADHSTPGTSPEMIPDTQGHWMPLRSRGLGALPGAFQAPQPLLSRLRHRLAPPRIVGTVSCRRLRTIVALGAARDSCTVGTQGRPGNSDLPAFPTSQVVRGKMGPGSQRTLVLLLLLLASPGARAFQSCLNKQQLLTTVRQLQQLLKGQETRFTEGIRNMKSRLTALQNTVSKMTPDAPPVSCPALDAPPNGKKFGSKYLVDHEVHFTCNPGFQLVGPSSVVCLANGTWTGEQPRCRDTSECSSQPCHNGGTCVEGVHHYRCICPPGKTGNRCQHQTQAAAPGGVAGDSAYSRAPRCAQVEREQHCSCEAGFHLSGTAGGHSVCQDVNECEIYGQEGRPRLCMHACVNTPGSYRCTCPSGYRILADGKSCEDVDECAGPQHMCPRGTTCINTGGGFQCVNPECPEGSGNISYVKTSPFQCERNPCPMDSRPCRHLPKTISFHYLSLPSNLKTPITLFRMATASVPGHPGPNSLRFGIVGGNSRGHFVMQRSDRQTGELILIQTLEGPQTLEVEVDMSEYLERSFQASHVSKVTIFVSRYDF,failed
17,MIRISIALLDHQEQLPNMFENLSEDLRKALNEAGYIKPTRVQEVVIPELMNGKSVIVQAKTGSGKTAAYVIPILERNSTALILSPTRELATQILDEIKKLGKYKQIDVSLIIGGMSYDDQRQSKIVVGTPGRLLDLWSKGKIDFSGYDFVIVDEADRMLDMGFIDDIRMILNHCNAKIAGFFSATIPDEIMTLAKEFSKDLREIVLDEYKPVEEVKQKFVKVRNDWNDKVSKLLEEINGEKILVFARTRDRARKLYYLLKGKGVNVGLLSGDMPQSVRLKNFYGFKKGKYNVLVATDLASRGIDIIDVNKVINFDIPRDVETYIHRVGRTGRMGRVGQAITFYTFREADMIKRINNLLAI,failed
18,SGILFMSKVGLRGDRRSEGDEVLDPLRQALDSSMQSHNLYQHPQHLAFHVSAPVASTVQQASGLLGPLPHLSSFALQPAHSLLPPLGSHGAGFQENGAKAES,not failed
19,MSSQSIDDKFMSITQMKNLIHYVKKNDALSHLCIYILIITGSRFKPVQHLRYEDLNFKKSCIHLNDTKNKYSKRNVKVRIKDLEYIQSVINKHPINQNGYIFHNFINFISYSAINDVLVRFCLKYKYDKYTLKSLRHTHCSYLLAKGISIQYISKRLGHADIHTTLKIYSHLIKEFEDSENSLIEKNLNDLFSDLEHHHHHH,failed
20,YYNIYYPRGKDFYNVGGDYKFFWKRFSLLGETAIDKCGTWATMNMLRYSPKGGTQLIVMNRYYDAKYQSVYARSIGEGSTVQNESGFYIGLETSILKYIKMTCYGDFFYFPWKKYLVSKAGTKGLDGLLQLSYSPTYELEMFIRYRYKKKEKDFTAADKTKQTIPSIQQKCRYQLNYSVKDKLTLKTIADYVRINFRGQSASNGFLVSQSAAYTFHLLPLQLDLSAAWFNTDDYNSRLTIYEKSVLYAFSMPSFYYKGMRVAVNARYELNKHIILQAKYGTTHYFNRDKISSALEEIDGSTKSDLYLQLRLKF,failed
